Measured values from the Immune Epitope Database (IEDB).

What was measured:
[1] = target: HLA-B*46:01; experiment: IEDB peptide-MHC binding, purified MHC/competitive/fluorescence; filed as Kd, often an IC50 or EC50 that approximates it; ≥ and ≤ were set here for values at or beyond the usual limits of such assays; conditions: source organism: Listeria monocytogenes serotype 1/2a str. F6854
[2] = target: HLA-C*15:02; experiment: IEDB peptide-MHC binding, purified MHC/direct/fluorescence; filed as Kd, often an IC50 or EC50 that approximates it; ≥ and ≤ were set here for values at or beyond the usual limits of such assays; conditions: source organism: Listeria monocytogenes serotype 1/2a str. F6854
[3] = target: HLA-C*07:02; experiment: as above
[4] = target: HLA-C*06:02; experiment: as above; conditions: source organism: Listeria monocytogenes serotype 1/2a str. F6854
[5] = target: HLA-A*69:01; experiment: as above
[6] = target: HLA-A*31:01; experiment: as above
[7] = target: HLA-B*07:02; experiment: as above
[8] = target: HLA-B*08:01; experiment: as above
[9] = target: HLA-B*57:01; experiment: as above
[10] = target: HLA-B*39:01; experiment: as above
[11] = target: HLA-B*48:01; experiment: as above
[12] = target: HLA-A*11:01; experiment: as above
[13] = target: HLA-B*08:03; experiment: as above
[14] = target: HLA-B*18:01; experiment: as above; conditions: source organism: Giardia lamblia ATCC 50803
[15] = target: HLA-B*27:05; experiment: as above; conditions: source organism: Giardia lamblia ATCC 50803
[16] = target: HLA-B*40:01; experiment: as above; conditions: source organism: Giardia lamblia ATCC 50803
[17] = target: HLA-B*58:01; experiment: as above
[18] = target: HLA-B*08:02; experiment: as above; conditions: source organism: Giardia lamblia ATCC 50803
[19] = target: HLA-A*26:03; experiment: as above; conditions: source organism: Giardia lamblia ATCC 50803
[20] = target: HLA-A*01:01; experiment: as above
[21] = target: HLA-A*68:02; experiment: as above
[22] = target: HLA-A*26:02; experiment: as above; conditions: source organism: Giardia lamblia ATCC 50803
[23] = target: HLA-A*02:01; experiment: as above
[24] = target: HLA-B*15:17; experiment: as above
[25] = target: HLA-A*11:01; experiment: IEDB peptide-MHC binding, purified MHC/competitive/fluorescence; filed as Kd, often an IC50 or EC50 that approximates it; ≥ and ≤ were set here for values at or beyond the usual limits of such assays
[26] = target: HLA-B*18:01; experiment: as above
[27] = target: HLA-A*30:01; experiment: as above
[28] = target: HLA-B*15:17; experiment: as above
[29] = target: HLA-A*03:01; experiment: IEDB peptide-MHC binding, purified MHC/direct/fluorescence; filed as Kd, often an IC50 or EC50 that approximates it; ≥ and ≤ were set here for values at or beyond the usual limits of such assays; conditions: source organism: Influenza A virus (A/chicken/Hubei/wk/1997(H5N1))
[30] = target: HLA-B*73:01; experiment: as above; conditions: source organism: Influenza A virus (A/chicken/Hubei/wk/1997(H5N1))
[31] = target: HLA-B*15:01; experiment: as above
[32] = target: HLA-A*31:01; experiment: IEDB peptide-MHC binding, purified MHC/competitive/fluorescence; filed as Kd, often an IC50 or EC50 that approximates it; ≥ and ≤ were set here for values at or beyond the usual limits of such assays
[33] = target: HLA-B*39:01; experiment: as above; conditions: source organism: Vaccinia virus WR
[34] = target: HLA-A*02:06; experiment: as above; conditions: source organism: Vaccinia virus WR
[35] = target: HLA-A*68:02; experiment: as above; conditions: source organism: Vaccinia virus WR
[36] = target: HLA-A*26:02; experiment: as above
[37] = target: HLA-A*24:03; experiment: IEDB peptide-MHC binding, purified MHC/direct/fluorescence; filed as Kd, often an IC50 or EC50 that approximates it; ≥ and ≤ were set here for values at or beyond the usual limits of such assays; conditions: source organism: Camelpox virus M-96
[38] = target: HLA-A*02:03; experiment: IEDB peptide-MHC binding, purified MHC/competitive/fluorescence; filed as Kd, often an IC50 or EC50 that approximates it; ≥ and ≤ were set here for values at or beyond the usual limits of such assays; conditions: source organism: Vaccinia virus Copenhagen
[39] = target: HLA-B*15:01; experiment: as above; conditions: source organism: Vaccinia virus Copenhagen
[40] = target: HLA-B*15:09; experiment: IEDB peptide-MHC binding, purified MHC/direct/fluorescence; filed as Kd, often an IC50 or EC50 that approximates it; ≥ and ≤ were set here for values at or beyond the usual limits of such assays; conditions: source organism: Variola virus
[41] = target: HLA-C*14:02; experiment: as above; conditions: source organism: Vaccinia virus Copenhagen
[42] = target: HLA-B*83:01; experiment: IEDB peptide-MHC binding, purified MHC/competitive/fluorescence; filed as Kd, often an IC50 or EC50 that approximates it; ≥ and ≤ were set here for values at or beyond the usual limits of such assays; conditions: source organism: Homo sapiens
[43] = target: HLA-B*45:06; experiment: as above; conditions: source organism: Homo sapiens
[44] = target: HLA-A*68:23; experiment: as above; conditions: source organism: Homo sapiens
[45] = target: HLA-B*15:42; experiment: as above; conditions: source organism: Homo sapiens
[46] = source organism: Giardia lamblia ATCC 50803
[47] = source organism: Influenza A virus H3N2
[48] = source organism: Influenza A virus (A/chicken/Hubei/wk/1997(H5N1))
[49] = source organism: Vaccinia virus WR
[50] = source organism: Camelpox virus M-96
[51] = source organism: Vaccinia virus Copenhagen

Sequence KMIGNLLSF has a Kd [1] of 1.11 µM, a Kd [2] of 2.56 µM and a Kd ([3]; source organism: Listeria monocytogenes serotype 1/2a str. F6854) of 0.666 µM. The Kd [4] was at least 20 µM.
With RENQVAVVR the Kd [5, 46] was at least 20 µM, the Kd [6, 46] was at least 20 µM and the Kd [7, 46] was at least 20 µM. The Kd [8, 46] was at least 20 µM, the Kd [9, 46] was at least 20 µM and the Kd [10, 46] was at least 20 µM. For the same sequence, the Kd [11, 46] was at least 20 µM, the Kd [12, 46] was at least 20 µM and the Kd [13, 46] was at least 20 µM. The Kd [14] was at least 20 µM, the Kd [15] was at least 20 µM and the Kd [16] was at least 20 µM. The Kd [17, 46] was at least 20 µM, the Kd [18] was at least 20 µM and the Kd [19] was at least 20 µM. For the same sequence, the Kd [20, 46] was at least 20 µM, the Kd [21, 46] was at least 20 µM and the Kd [22] was at least 20 µM. It also gave a Kd [23, 46] of at least 20 µM and a Kd [24, 46] of at least 20 µM.
Work on MKWMMAMKY yielded a Kd [25, 47] of at least 20 µM, a Kd [26, 47] of 0.984 µM and a Kd [27, 47] of 1.08 µM. For the same sequence, the Kd [28, 47] was 0.912 µM, the Kd [5, 48] was at least 20 µM and the Kd [6, 48] was at least 20 µM. For the same sequence, the Kd [7, 48] was at least 20 µM, the Kd ([8]; source organism: Influenza A virus(A/swine/Shandong/fNY/2003(H9N2))) was at least 20 µM and the Kd [9, 48] was at least 20 µM. For the same sequence, the Kd [11, 48] was at least 20 µM, the Kd [29] was at least 20 µM and the Kd [17, 48] was at least 20 µM. For the same sequence, the Kd [20, 48] was at least 20 µM, the Kd [21, 48] was at least 20 µM and the Kd [30] was at least 20 µM. The Kd [23, 48] was at least 20 µM and the Kd [31, 48] was at least 20 µM.
Work on NYFNRMFHF yielded a Kd [32, 49] of 2.3 µM, a Kd [33] of 3 µM and a Kd [25, 49] of at least 20 µM. For the same sequence, the Kd [34] was 3.36 µM, the Kd [26, 49] was 0.89 µM and the Kd [27, 49] was 3.26 µM. The Kd [35] was at least 20 µM, the Kd [36, 49] was at least 20 µM and the Kd [5, 50] was at least 20 µM. The Kd [7, 50] was at least 20 µM, the Kd [9, 50] was at least 20 µM and the Kd [37] was 0.0043 µM. For the same sequence, the Kd [17, 50] was at least 20 µM, the Kd [20, 50] was at least 20 µM and the Kd [3, 49] was 0.003 µM. For the same sequence, the Kd [23, 50] was at least 20 µM, the Kd [31, 50] was at least 20 µM and the Kd [24, 50] was at least 20 µM.
With KYFDDVTAF the Kd [32, 51] was 2.95 µM, the Kd [26, 51] was 0.0874 µM and the Kd [38] was 3.99 µM. For the same sequence, the Kd [36, 51] was at least 20 µM, the Kd [39] was 2.07 µM and the Kd [28, 51] was 4.33 µM. For the same sequence, the Kd [5, 50] was at least 20 µM, the Kd [7, 50] was at least 20 µM and the Kd ([8]; source organism: Variola virus) was at least 20 µM. The Kd [9, 50] was at least 20 µM, the Kd [40] was at least 20 µM and the Kd ([10]; source organism: Variola virus) was at least 20 µM. The Kd [41] was at most 0.001 µM, the Kd [12, 50] was at least 20 µM and the Kd ([13]; source organism: Variola virus) was at least 20 µM. The Kd [37] was 0.0055 µM, the Kd [17, 50] was at least 20 µM and the Kd [20, 50] was at least 20 µM. The Kd [21, 50] was at least 20 µM and the Kd [23, 50] was at least 20 µM.
With KGPPAALTL the Kd [42] was 5.27 µM, the Kd [43] was at least 5 µM and the Kd [44] was 0.946 µM. The Kd [45] was at least 5 µM.
